# Reference: a protein production outcome set (Wang et al. 2014)
# Experiment: label from the status in PepcDB records
row,Sequence,protein production
1,MLRRSFSSYLRQGLLLAFLAAFSALWLAQAHAERRAAIVVGNSEYPFAPLTNPRNDAKLIANTLTELKFDVLLFYDVKKSAEKDLNDAIRAHLIGADMAVFYYAGHALQYNGQNLLLPVDTRISSAKEVAADAMRLNDLIDIVKNDPVGVKVFILDACRNNPVAKEKGLQQGLAYTEAGSGQVLVAFATSAGEVAYDGTGINSPYSSALANALLMPNLDVYDTFRTVRGDVRQATGGSQIPWITGSIETKFVFRQGDAGKQVAQAEHAAEADGGLTIDEVLWSFISDSQNPEDFERFVKVFPNSRYAAEATEKSRFKVAALTKRGLYVNGNLVSSSIAATAPIGASDKALSEEFVFQQAGERAVSETFRIWPSNLPDTQRGMRTMVTDCDLYAADPNDPQRAVPGVTNGLVNVRDALRACAFALAADINNPRLQFQFGRVLEIARRYSWAEHFYELAGNQQYSAALINMGYMARVGMGREIDYGRAFDPYVRAAALGNLRARTDIGSAYIAGQGVPKLPEEGVLWYRLAASSGWANAITALGDAYRLGTGVKQDYVQAASLYSAAADTGQIDAMANLGQAYLAGEGVKKDVPRGLELLQRANDMGNRYAPYFMAQLYLKGDRKLPADPRRALALLELSANRGNEYAYVRLAWGHRDGVFTGGKPDLRRAYFDASLAARLRADQGEQAKAEIAKKIDPATRKEIDGEVELYIKQNGP,failed
2,MLRSSSVDRKREEEPRLSYMIARVDRIISKYLTEHLSALEISLPQFTALSVLAAKPNLSNAKLAERSFIKPQSANKILQDLLANGWIEKAPDPTHGRRILVTVTPSGLDKLNQCNQVVQQLEAQMLQGVDINLAFLIRNNLELMVKNLSTFSSLDQSKE,not failed
3,MLRVFHFYGMLRLPRSGIEQSLKGERCTVSTQIRILPENLTNKIAAGEVVERPASVVKELVENSLDAGCRDIIVEIEAGGRRLIRVTDDGSGMSREDALLSLERHATSKIASDDDLFSLCTLGFRGEALPSIASVSRFSLATRQRGAIEGTEIYAEGGRIKEVKACGMAEGTVITVRNLFFNTPARLKFMKSAETEAGHVGDLLTRLAISRPEVRFTYVNDGKTVFRALNGTMEERVAALLGRTIAGALYPLDSTVEGVTVRGLVARPDVSRSAAGHLYTFINGRFIRDRVVQHAVLQAYRNFLERGRYPVVVLFIQVPAGDVDVNVHPTKHEVRFRQQGVVHDVIQGVIEEALRPTPWLRKESQSTVSSPPPERREPATSSERVAEVRELLVNYRPSPAPSRPFFQPLPAVVPAPDQSAEEPDRPMDRGYFSRLAIIGQFHASYILCQDGSDLVIIDQHAAHERVAFERLKAQFAAGGVEGQGLLFPDTLELSHREVAELREHGEELRRIGFDLDEFGGTTWVVKGVPRLLAGKDYLRILRDTLEEFQAVGANRSVADAVEEILTRIACHSVVRGEHPLTTAQIEALFAQMDATDYSTNCPHGRPVLQRLTLAEVERMFKR,failed
4,MLRVLSVGVAFILLGCQFFNKTTLHLKYKDYPKNSALKTAFTLTPPKIFFNARFVPPFYQKEFKKAITQQIAYFLKDKSAFILNVSGNVFFSFEENPKDLKAIKERLKKTIEPNADPKAVMRFLNLQASLILECVPQTTCPFDTLLIPTAFSVPVYYANRLGDNPSLFSQEDKTYHNALIKALNKAYYSLMEGLEKRLNAIKNAEWL,failed
5,MLRVVEVCWRESHMKVLAINSSPRMDKGNTALILNPFLEGMKEAGAEVELFYTKKLKISPCTGEFNCWLKTPGKCYQNDDMNILYPRIDAADVIVFATPVYVDGVTGQMKNFIDRMLPRVEPFVELRDGHCRHPVRGGPKALKFVLVSNCGFWEMDNFDSLLVFMKAFCKNASTEFAGALLRPHGEALSSMLEMGAPIDDVFEAAREVGRQLVKEGKMSQETLDIVSRELLPKEMYIQIANQTFRQCLESLDRLEHHHHHH,failed
6,MLSANQIKFLRSLRERKYRLREQAFAVEGPKLVGEMLPFYRCRMLVGTAAMLRAVSTPHDAEVVELPESFDFKRISTQTTPQPLMAVFDLPAEPEPVVEGLTLLLDGVQDPGNVGTILRTADWFGIRHVWLGTGSADVFSPKVVQASMGALARVQPTPLKNTVDTLAYFRRQGIPVYGAFLDGQSLYEAPLPNFTEPAILVLGSEGRGISPEVAAEITDRLTIPASGLSVKGHTESLNVAIATAILCSEWRRRS,not failed
7,MLSEQALELIDIVARVGSFTAAANRLHKVPSAVSYAVKQIEEELGVVLFERHHRSVTLTPAGGHFVKQARNLLTQIDEMKRGTQRVANGWQPTLSIALDNIVRADRISVLIADFYRHFHDIELIIRIEVFNGVWEALATGHSDVAIGATTAIPVGGVFQYKDMGDIEWAFLVSKNHPLANIDRPLTDEELRPFPSICLEDTSREIPKRMTWLLENQRRLVVPDWIRAINCFREGLGIGYMPVHLASVFIKAGALVEKQLENPKLTSPCCLAWNADKMSPALAWVLDYLGDTDKLHREWLA,failed
8,MLSKILKTSLCFIFMTCWVTTAQAFKGPLETPASMKLHATTSQLTAVTRNGNRLAAVGARGLVLLSDDNGKKWQQVAVPVSSNLVSVQFPVPDQGWAVGHDGVVLHSGDGGRTWSKQLDGNQVAKIMLKHYEKLAAEGDAAASKILPDIQRILQEGADKPFMDVWFLDEKEGFVAGAFNLIMHTTDAGKTWVPLFERTDNPKNLHIYALKGVGKEVYLAGEMGMLRRWDRASQRFVTIASPYKGTFFGLLAKDTTILAFGLRGNAFRSSDRGNTWRKLNTNTTAGLTGGTFLDDGRAVLVSQDGQVLVIDVGSETFVPAKVSSPMAFSSVAPAGKNGIVAVGSRGVITESLK,failed
9,MLSKRDAILKAAVEVFGKKGYDRATTDEIAEKAGVAKGLIFHYFKNKEELYYQAYMSVTEKLQKEFENFLMKNRNRDIFDFMERWIEKKLEYSASHPEEADFLITLVSVDEGLRKRILLDLEKSQRVFFDFVREKLKDLDLAEDVTEEIALKFLMWFFSGFEEVYLRTYQGKPELLKRDMNTLVEEVKVMLRILKKGMTK,not failed
10,MLSKSKTTKALLYSTAALSLFAASHVHADETSHWTARSVDQIKADISVNDNQQTYTVQYGDTLGSIVEAMGIDMNVLANIKEITNIDLIFPGTVLTTTYNADNQAVSVKVETPSSETSDTPVVAESNLTTNEVTVNGQSVVASDLSAPVETVSLTATQAPAKEESTQVVSEVTEAIASASDTPAYADTEQPVADAIDHVTSSAEETLAEEEAPATETSAQAETTEVAATSEAASEAASEVPAEQLAAASEAPESSEAPAEQPAAAPESSEAPAEQPAATSEAASEAPASVVPVATSEAVSEAPAVSEVPAEQLAAASEAPESSEVPAEQPAAAPESSEAPAEQPAATSEAAPATSEAPAEQLAATSEAASTPNTYPVGQCTWGAKSLAPWAGNNWGNAKDWIASAQAAGHSVGTTPVAGAIAVWPNDGGGYGHVAYVTSASGVNSIQVMESNYAGNMLIGNYRGTFDPTSSAHGGSVYYIYP,failed
11,MLSRRASLAAIAIGLIAAAGAAHAQSPLGIGSAEPSFSLGGPFAPLMQWINVHQQMFYRALTGALKAMREDSWALGSLIGLSFAYGVFHAAGPGHGKAVISSYMIANETQLRRGILISFVSALIQGLMAIGLVGAAWLVLRGTSITMTKATQAMEIASFAMVALFGAWLLVRKLWSLRIRREPVPVFATAGEAPAARTNGMGTGLRFQGKPVFADHDHNGTGDLCTACGKSHAPDPMLLKGKNFSLHEAWSAIIAVGLRPCSGAIIVMSFALLNGLYLGGVLSVLAMSLGTAITVSALAIMAVSAKGLAVRFAGPGSRKAAGISHAIEIAGALFVLIMGLLLLGASLQF,failed
12,MLSYPGELQGCRVILYLVGHHLYLIPTTISMCGCPEEGAYMRRLWGYISIITATIFFGISATLDKIMLSSMHPVTIGAYTYIIAGIFLFFIRETPLREHVLNAINRKGESEARIKRNDYLILLLTALLSTVIAPLLFLTGLGDTTAVNASLILNVEVLFIILLGYLIFRETLQLKDFLGIVLIILGAVYLLTEGDFSTILRNVAVTGNFLVMAAAFFWSLDTVLSKFLSRKRDLIFISGVKSSVGGFVLLIIMLILGINTELPLEMLPYALGVSVFSIGCSFILIYIAIREIGASMVGALFPLSSLFGAIFAFIILREPFSIMQGISGIVMLTGVFILYWNGK,failed
13,MLTDALLAFLHFTAIFVLVTLMAAEAVVLRPDMPPSAVRRLSQYDFFYFLSAMVVLATGLLRLFYGAKGVDFYLHNPWFHAKITVFVLIALATLPPTFAFARWRKQSLKLPEFVPTPAEIKKVRRWVMIEAHAFILLPLCAVMMARGIGIH,failed
14,MLTDSGGGGTSFEEDLDSVAPRSAPAGASEPPPPGGVGLGIRTVRLFGEAGPASGVGSSGGGGSGSGTGGGDAALDFKLAAAVLRTGGGGGASGSDEDEVSEVESFILDQEDLDNPVLKTTSEIFLSSTAEGADLRTVDPETQARLEALLEAAAFADPEVLRRLTSSVSCALDEAAAALTRMKAENSHNAGQVDTRSLAEACSDGDVNAVRKLLDEGRSVNEHTEEGESLLCLACSAGYYELAQVLLAMHANVEDRGNKGDITPLMAASSGGYLDIVKLLLLHDADVNSQSATGNTALTYACAGGFVDIVKVLLNEGANIEDHNENGHTPLMEAASAGHVEVARVLLDHGAGINTHSNEFKESALTLACYKGHLDMVRFLLEAGADQEHKTDEMHTALMEACMDGHVEVARLLLDSGAQVNMPADSFESPLTLAACGGHVELAALLIERGANLEEVNDEGYTPLMEAAREGHEEMVALLLAQGANINAQTEETQETALTLACCGGFSEVADFLIKAGADIELGCSTPLMEASQEGHLELVKYLLASGANVHATTATGDTALTYACENGHTDVADVLLQAGADLDKQEDMKTILEGIDPAKHQVRVAFDACKLLRKE,failed
15,MLTHYAALRASDRETFLIIELGGLGGRMGLVFVVMIVVLLYAPVHVPTYVGTLLGLLFVSIAFEIWMIVRRMRQDGLMARD,failed
16,MLTKVIEQAKIDHFTKWFERADKIVIVSHVSPDGDAIGSSLGLYHFLDSQEKTVNVIVPNAFPDFLRWMPGSKDILLYDRYKDFADKLIAEADVICCLDFNALKRIDEMADAVAASPARKVMIDHHLYPEEFCKITMSYPKISSTSELIFRLICRMGYFSDISKEGAECIYTGMMTDTGGFTYNSNNREIYFIISELLSKGIDKDDIYRKVYNTYSESRLRLMGYVLSNMVVYSDYNAALISLTKEEQSKFDYIKGDSEGFVNIPLTIKNVCFSCFLREDTEKPMIKISLRSVGTFPCNQLAAEFFNGGGHLNASGGEFFGTIEEAKAVFEQALEKYKPLLTAKSLEHHHHHH,not failed
17,MLTLLNLLSAVTLLVWGTHIVRTGILRVFGSNLRRIISQNMDKRPLAFIAGILVTAMVQSSNATAMLVTSFVGQGLMAMTPALAIMLGADVGTALMARVLTFDLSWLSPLLIFLGVIFFLSRKQTRAGQLGRVGIGLGLIILALELIVQAAAPITQAQGVKVLFASLTGDIMLDALVGAMFAMISYSSLAAVLLTATLAGAELISLPVAIGLVVGANIGSGLLAFISTSMQNAAGRRVALGSLLYKLIGLVLIIPVLHPLVAWMDSLSFSPQELVIGFHLLYNTLRCLIMLPTVKPMGRLCNALLPEREIGNGQVRPRHLDASALETPSLALANAARETLRLGDIVDSLLEAMLGALRGTQTALPQQVRALGEDAEALYSAIKLYLAQMSREDLSEQDNRRWAEIIELSINLKLACDLIERMLRKVQQQKTSQRREFSQVGLEELTGLQEQLLANLRLGLSVFLSADPESARLLLREKRRFRAQERRLAHAHVSRLQRKVVQSIETSSLHLELIADMKRLNSLFCSSAYVVLGGSDTGGLMLDSVPDEARLP,failed
18,MLTLLSPCTLPVIPLLFASVRGRRGQLAIMLAGMALMFGAVSWLVTVASGWVVNLTLAGRGLALAFFALVGLSLLSQRVAQRLTSPLVALGNQLNDASSRQRGWIGSLLAGLAVGLLWAPCAGPVLGAILSLGFVHPGQATTGGLLLAYGSGGALMLFLLGWCGAALIARLRRGQAFGERLRRLAGGAMLASVALIASGGDRYLQSAGGLSQALEQRLAARLPQPEQKTSLQPIAAPQPSSAMPSLAGGSAWINSPALTPERLKGKVVLVDFWTRECINCQHTLPYVRDWANKYRAAGLVVIGVHTPEYPWERSLPLLRQAVKDWRITYPVVADNEYAIWNAFGNQYWPAHYIFDARGQLRYTAFGEGDYARQEQVIQQLLQESKA,failed
